PMC10598214, “SaLT&PepPr is an interface-predicting language model for designing peptide-guided protein degraders” (Communications Biology, 2023)

Molecular target: T1, β-catenin (UniProt P35222 1-781)
T1 sequence (looked up): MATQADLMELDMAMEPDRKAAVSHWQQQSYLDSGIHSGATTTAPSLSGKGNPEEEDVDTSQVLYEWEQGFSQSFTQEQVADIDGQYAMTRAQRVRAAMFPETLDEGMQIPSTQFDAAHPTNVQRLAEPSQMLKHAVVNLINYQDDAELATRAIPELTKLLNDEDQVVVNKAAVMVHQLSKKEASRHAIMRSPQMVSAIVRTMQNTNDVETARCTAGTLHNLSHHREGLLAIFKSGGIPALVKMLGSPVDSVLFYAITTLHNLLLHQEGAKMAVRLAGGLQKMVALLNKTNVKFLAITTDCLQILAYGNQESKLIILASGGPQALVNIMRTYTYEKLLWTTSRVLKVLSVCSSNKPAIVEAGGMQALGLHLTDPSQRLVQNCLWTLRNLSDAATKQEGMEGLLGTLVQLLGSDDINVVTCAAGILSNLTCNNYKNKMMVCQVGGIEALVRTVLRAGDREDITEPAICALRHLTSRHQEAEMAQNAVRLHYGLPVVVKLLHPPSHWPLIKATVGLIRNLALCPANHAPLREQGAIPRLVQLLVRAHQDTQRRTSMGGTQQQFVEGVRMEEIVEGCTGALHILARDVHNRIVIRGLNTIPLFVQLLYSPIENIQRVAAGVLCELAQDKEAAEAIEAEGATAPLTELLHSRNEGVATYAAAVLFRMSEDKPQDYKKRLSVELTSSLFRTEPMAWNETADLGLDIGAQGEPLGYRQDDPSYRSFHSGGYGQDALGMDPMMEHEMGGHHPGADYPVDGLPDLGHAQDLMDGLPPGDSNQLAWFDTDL
Test: cell-based or functional assay

- degradation of endogenous cytosolic β-catenin in transfected DLD1 cells (immunoblot densitometry, relative to non-transfected control): > 60%
B1: SnP_8 uAb (designed binder)
chain: PTAPPYDSLLVFDYEGGSGSGRLNFGDDIPSALRIAKKKRWNSIEERRIHQESELHSYLSRLIAAERERELEECQRNHEGDEDDSHVRAQQACIEAKHDKYMADMDELFSQVDEKRKKRDIPDYLCGKISFELMREPCITPSGITYDRKDIEEHLQRVGHFDPVTRSPLTQEQLIPNLAMKEVIDAFISENGWVEDY
modifications: biotinylated with EZ-Link NHS-Biotin
